# Experimental data published in patent US11820973B2, “Methods and system for interfering with viability of bacteria and related compounds and compositions” (CALIFORNIA INSTITUTE OF TECHNOLOGY, priority 2011, dated 2023).
# Legend:
# [1] = test system: P. aeruginosa PA14 biofilm; assay: MBEC assay, anaerobic biofilm prevention; format: cell-based, Pseudomonas aeruginosa; conditions: 100 μM conalbumin, ˜10 μM Fe(II) and 10 μM Fe(III) present
# Procedure: (§1) In some examples, biofilm prevention and dissolution were measured via a high-throughput biofilm assay (MBEC Physiology and Genetics Assay) consisting of a 96-well plate into which a 96-peg plastic lid fits. This lid also fits over a standard 96-well plate, which was subsequently used to test the efficacy of iron chelators. Inoculum was prepared by diluting (30-fold) a 1.0 McFarland suspension of P. aeruginosa PA14 in TSB. 150 μl, was dispensed into each of the 60 inner wells, while 200 μl, of sterile trypticase soy broth (TSB) was placed in each perimeter well. For dissolution experiments, plates were incubated at 37° C. for 24 h, and were transferred to an anaerobic chamber for 24 h at 37° C. in anaerobic TSB containing 50 mM KNO3. Biofilms were then exposed to conalbumin and/or Ferrozine® for 24 h. Each treatment was complemented with the addition of 80 μM ferrous ammonium sulfate. After treatment, lids were rinsed once in 50 mM HEPES, air dried for 10 min and quantified by crystal violet staining. For biofilm prevention, anaerobic inoculum was amended with conalbumin and/or Ferrozine®. Media was replaced every 24 h by transferring the MBEC lid to a sterile plate containing growth media+/− treatments, and biofilms were allowed to develop for 168 h. Biomass was quantified as described above. Biological triplicates and six technical replicates (n=18) were used for each treatment.
# [2] = test system: P. aeruginosa; assay: Planktonic growth rates with iron chelators; format: cell-based, Pseudomonas aeruginosa
# [3] = test system: P. aeruginosa PA14 wild type; assay: Flow cell biofilm development, wild type, 1% TSB with or without conalbumin
# [4] = test system: P. aeruginosa PA14 mature biofilms; assay: MBEC assay, dissolution of mature biofilms; format: cell-based, Pseudomonas aeruginosa; conditions: conalbumin; mature biofilms; 24 h exposure
# Procedure: as §1
# [5] = Day 6, WT, 40 μg/ml conalbumin, 10 μM PCA or PYO
molecule,measurement,setting,value
"conalbumin: Fe(III)-binding protein of the transferrin family, an Fe(III) chelator; substantially iron-free, from Sigma-Aldrich (protein, UniProt P02789 20-705, looked up, iron-free, substantially iron-free, from Sigma-Aldrich) Ovotransferrin: APPKSVIRWCTISSPEEKKCNNLRDLTQQERISLTCVQKATYLDCIKAIANNEADAISLDGGQAFEAGLAPYKLKPIAAEVYEHTEGSTTSYYAVAVVKKGTEFTVNDLQGKTSCHTGLGRSAGWNIPIGTLLHRGAIEWEGIESGSVEQAVAKFFSASCVPGATIEQKLCRQCKGDPKTKCARNAPYSGYSGAFHCLKDGKGDVAFVKHTTVNENAPDQKDEYELLCLDGSRQPVDNYKTCNWARVAAHAVVARDDNKVEDIWSFLSKAQSDFGVDTKSDFHLFGPPGKKDPVLKDLLFKDSAIMLKRVPSLMDSQLYLGFEYYSAIQSMRKDQLTPSPRENRIQWCAVGKDEKSKCDRWSVVSNGDVECTVVDETKDCIIKIMKGEADAVALDGGLVYTAGVCGLVPVMAERYDDESQCSKTDERPASYFAVAVARKDSNVNWNNLKGKKSCHTAVGRTAGWVIPMGLIHNRTGTCNFDEYFSEGCAPGSPPNSRLCQLCQGSGGIPPEKCVASSHEKYFGYTGALRCLVEKGDVAFIQHSTVEENTGGKNKADWAKNLQMDDFELLCTDGRRANVMDYRECNLAEVPTHAVVVRPEKANKIRDLLERQEKRFGVNGSEKSKFMMFESQNKDLLFKDLTKCLFKVREGTTYKEFLGDKFYTVISSLKTCNPSDILQMCSFLEGK",Prevention of biofilm growth,[1],ineffective in preventing biofilm growth
same,Effect on planktonic growth rates,[2],Neither compound affected planktonic growth rates
same,Max. biofilm thickness,[3]; [5],32 μm
same,Substratum coverage,[3]; [5],11.8 ± 1.3%
same,Total biomass,"[3]; Day 6, WT, additives to 1% TSB: 40 μg/ml conalbumin, 10 μM PCA or PYO",0.80 ± 0.08 μm^3/μm^2
same,Avg. thickness of biomass,"[3]; Day 6, WT, calculated for the area covered by biomass, 40 μg/ml conalbumin, 10 μM PCA or PYO",9.0 ± 0.7 μm
same,Biofilm formation with conalbumin (iron-free form) added,"[3]; wild type, 1% TSB, 40 μg/ml conalbumin",neither strain formed biofilms
same,Reduction of established biomass,[4],did not significantly reduce established biomass
